Assay [1] deals with T1, huPAD2 deiminated human recombinant histone H3 (human).
T1 construct: also called H3/p2
The assay is described as follows: ELISA, 0.08 ug/well. On the procedure: (§1) CFC-1 and CFC-0 were coated at the same concentration and served as positive and negative controls, respectively, for specific anti-citrulline reactivity and as coating controls. Non-coated wells were used to test for aspecific binding of the antibodies. […] Detection of bound anti-citrulline antibodies was performed by incubating the wells with rabbit-anti-human-HRP (1:2000) for one hour at RT followed by incubation with TMB substrate. The resulting OD (y-axis) is a measure for antibody binding. H1=recombinant histone 1; H1/p2=huPAD2 recombinant histone 1; H1/p4=huPAD4 recombinant histone 1 and so forth (x-axis).

In assay [2] the target is T2, huPAD4 deiminated human recombinant histone H2B (human).
T2 construct: also called H2B/p4
The experiment in a line: ELISA, 0.08 ug/well. As to the method:
as §1
For orientation: ELISA stands for enzyme-linked immunosorbent assay.

Assay [3] has as its target T3, human recombinant histone H2A (human).
T3 construct: Non-deiminated
The experiment in a line: ELISA, 0.08 ug/well. On the procedure: as §1

Assay [4] has as its target human recombinant histone H4 (human, UniProt P62805 2-103). The assay is described as follows: ELISA, 0.08 ug/well. As to the method: as §1
Assay [5] concerns the target T4, huPAD4 deiminated human recombinant histone H3 (human).
T4 construct: also called H3/p4
The experiment in a line: ELISA, 0.08 ug/well. On the procedure:
as §1

Assay [6] has as its target T5, CFC-1.
T5 construct: Positive control for anti-citrulline reactivity; also called cfc1 XG
The assay is described as follows: ELISA, 0.08 ug/well. As to the method: as §1

For assay [7], the target named is T6, huPAD2 deiminated human recombinant histone H2A (human).
T6 construct: also called H2A/p2
The experiment in a line: ELISA, 0.08 ug/well. As to the method:
as §1

For assay [8], the target named is T7, huPAD4 deiminated human recombinant histone H2A (human).
T7 construct: also called H2A/p4; huPAD4 deiminated histone 2A
The assay is described as follows: ELISA, 0.08 ug/well. As to the method: as §1

In assay [9] the target is T8, msFibα XH (mouse, X at position 15 is citrulline; biotin label).
T8 peptide: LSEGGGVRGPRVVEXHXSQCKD
The experiment in a line: peptide ELISA, 0.000128 ug/well. On the procedure: (§2) Biotin and citrulline-containing peptides derived from fibrinogen and vimentin were immobilized on NEUTRAVIDIN®-coated 96-well ELISA plates (0.3 μg/well). CFC-1 and CFC-0 were coated at the same concentration and served as positive and negative controls respectively for specific anti-citrulline reactivity and as coating controls. Non-coated wells were used to test for aspecific binding of the antibodies. […] Detection of bound anti-citrulline antibodies was performed by incubating the wells with rabbit-anti-human-HRP (1:2000) for one hour at RT followed by incubation with TMB substrate. The resulting OD (y-axis) is a measure for antibody binding.
(§3) Biotin-labeled and citrulline-containing fibrinogen and vimentin peptides (Table 5) were also tested for reactivity with the therapeutic antibodies. Peptides were coated on 96-well NEUTRAVIDIN®-ELISA plates.

The target in assay [10] is T9, huFibα XH (human, X at position 15 is citrulline; biotin label).
T9 peptide: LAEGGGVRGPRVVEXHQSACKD
The experiment in a line: peptide ELISA, 0.000128 ug/well. As to the method:
as §2, §3

Assay [11] deals with T10, msVim XS/XL (mouse, also: biotin label).
T10 construct: also called mouse vimentin peptide
T10 peptide: YVT[Cit]SSAV[Cit]L[Cit]SSVP
The experiment in a line: peptide ELISA, 0.000128 ug/well. As to the method: as §2, §3

The target of assay [12] is T5, CFC-1. The assay is described as follows: peptide ELISA, 0.000128 ug/well. On the procedure: as §2, §3
The target of assay [13] is T11, huFibα XG (human, X at position 8 is citrulline; biotin label).
T11 peptide: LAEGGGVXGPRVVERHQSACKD
The experiment in a line: peptide ELISA, 0.000128 ug/well. As to the method: as §2, §3

Assay [14] concerns the target T12, msFibβ XG (mouse, also: biotin label).
T12 peptide: EPTDSLDA[Cit]GHRPVDRR
The assay is described as follows: peptide ELISA, 0.000128 ug/well. As to the method:
as §2, §3

The target in assay [15] is T13, msFibα XG (mouse, X at position 8 is citrulline; biotin label).
T13 peptide: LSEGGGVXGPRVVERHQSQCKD
The assay is described as follows: peptide ELISA, 0.000128 ug/well. As to the method: as §2, §3

Assay [16] concerns the target T8, msFibα XH. The experiment in a line: peptide ELISA, 0.4 ug/well. On the procedure: as §2, §3
Assay [17] has as its target T9, huFibα XH. The assay is described as follows: peptide ELISA, 0.4 ug/well. On the procedure:
as §2, §3

The target of assay [18] is T10, msVim XS/XL. The experiment in a line: peptide ELISA, 0.4 ug/well. As to the method:
as §2, §3

Assay [19] has as its target T5, CFC-1. The assay is described as follows: peptide ELISA, 0.4 ug/well. As to the method: as §2, §3
For assay [20], the target named is T11, huFibα XG. The experiment in a line: peptide ELISA, 0.4 ug/well. On the procedure: as §2, §3
Assay [21] has as its target T12, msFibβ XG. The assay is described as follows: peptide ELISA, 0.4 ug/well. On the procedure:
as §2, §3

In assay [22] the target is T13, msFibα XG. The experiment in a line: peptide ELISA, 0.4 ug/well. As to the method: as §2, §3
Assay [23] has as its target T5, CFC-1. The experiment in a line: peptide ELISA, 2 ug/well. On the procedure: as §2, with “histone 2A” for “fibrinogen and vimentin”
(§4) Ninety-six-well ELISA plates were coated with NEUTRAVIDIN® (0.1 μg/well) by overnight incubation at 4° C. Wells were washed five times with PBS-TWEEN®-20 (PBS-T) and blocked by a one-hour incubation with PBS-T+1% Bovine serum albumin (BSA) at room temperature (RT). After five more washes with PBS-T, wells were incubated for one hour at RT with histone-derived citrulline and biotin-containing peptides (0.3 μg/well). […] Wells were washed five times with PBS-T and incubated with rabbit-anti-human-HRP (1:2000) for one hour at RT followed by five washes with PBS-T and three wash steps with PBS. Wells were incubated for five minutes with TMB substrate before stopping the reaction with 2 M H₂SO₄. Optical density was measured by 450 nm and is a measure for the affinity of the antibodies used.

In assay [24] the target is T14, Histone 2A citrulline-containing peptide 4 (human, also: biotin label).
T14 peptide: QFPVG[Cit]VHRLLR
The experiment in a line: peptide ELISA, 2 ug/well. As to the method:
as §2, with “histone 2A” for “fibrinogen and vimentin”
as §4

Non-standard residues stand in square brackets, D forms with d. No end group written: not given here. Cit = NC(=O)NCCC[C@H](N)C(=O)O

B1: RhmAb2.102 (antibody, human IgG1, lambda)
heavy: not shown
light: QSVLTQPPSMSAAPGQKVTISCSGSSSNIGNNYVSWYQQVPGTAPKLLIYDDNKRPSGIPGRFSGSKSATSATLGITGLQAGDEADYYCGSWDDNLSVVLFGGGTKLTVLGQPKAAPSVTLFPPSSEELQANKATLVCLISDFYPGAVTVAWKADSSPVKAGVETTTPSKQSNNKYAASSYLSLTPEQWKSHRSYSCQVTHEGSTVEKTVAPTECS
notes: Human IgG1 lambda; also called Rhm2.102
Take B1: the OD in assay [1] stood at 0.493 OD; in assay [2], 0.052 OD; in assay [3] it was 0.06 OD; in [4] it was 0.067 OD; in assay [5], 0.093 OD; with CFC-1 [6], 2.15 OD. The OD in assay [7] is 1.96 OD; in assay [8], 1.75 OD; with msFibα XH [9] it was 0.089 OD; with huFibα XH [10] it was 0.12 OD; in the assay with msVim XS/XL [11], 0.133 OD; with CFC-1 [12], 0.288 OD. For the same molecule, the OD was 0.115 OD with huFibα XG [13]; 0.118 OD in the assay with msFibβ XG [14]; 0.119 OD with msFibα XG [15]; 0.076 OD with msFibα XH [16]; 0.09 OD in the assay with huFibα XH [17]; 1.45 OD with msVim XS/XL [18]. Also, the OD with CFC-1 [19] was determined as 3.79 OD; with huFibα XG [20], 0.521 OD; with msFibβ XG [21], 1.67 OD; with msFibα XG [22] it was 0.773 OD; with CFC-1 [23] it was 3.21 OD; in [24], 1.3 OD.

The values above are taken from patent US20170298146A1 (MODIQUEST B V, published 2017).
